# Results taken from US6045793.
# Biological target: [Met-(-1)]rOncG20 (Rana pipiens)
substance,measurement,value
Placental ribonuclease inhibitor (from UniProt P13489),"Fold Difference of IC50 (ng/ml) in rabbit reticulocyte lysate, (+)PRI against (-)PRI",0.9 fold
same,"IC50 (ng/ml) of the RNase for inhibition of protein synthesis in rabbit reticulocyte lysate, (+)PRI",24 ng/mL
